These are literature values, as cited in publication doi:10.1101/2023.06.05.542125.

Where two headings read alike, the source gives them in different places.

In data set [1] the target is RNA polymerase elongation complex (Escherichia coli) (UniProt P0A7Z4).
Data set [2] shares this target. The source holds these as a separate data set.

Sequence of GreA (P0A6W5 whole entry): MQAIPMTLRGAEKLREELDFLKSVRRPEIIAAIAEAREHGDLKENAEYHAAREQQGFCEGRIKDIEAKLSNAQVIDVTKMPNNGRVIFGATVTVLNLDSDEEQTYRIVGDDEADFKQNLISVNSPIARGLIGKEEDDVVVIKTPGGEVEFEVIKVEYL
Sequence of GreB (P30128 whole entry): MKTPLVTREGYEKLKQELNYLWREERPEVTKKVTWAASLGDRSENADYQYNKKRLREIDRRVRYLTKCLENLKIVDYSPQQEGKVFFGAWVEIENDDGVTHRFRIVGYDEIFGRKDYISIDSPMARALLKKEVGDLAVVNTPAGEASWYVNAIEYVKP

The Kd is the equilibrium constant for the complex coming apart. For GreB (from UniProt P30128), in data set [1], the dissociation constant (Kd) was 100 nM.
As to GreA (from UniProt P0A6W5), the dissociation constant Kd in data set [2] was 1000 nM.
